Series [1] addresses T1, human uracil DNA glycosylase (UNG) (human, UniProt P13051 94-313). Nature of the series: fluorescence anisotropy. (In fluorescence polarisation assays a small probe gives low polarisation when free and higher when bound to something large.)
The target of series [2] is T1, human uracil DNA glycosylase (UNG). Nature of the series: NMR HSQC titration, relaxation dispersion.

T1 sequence (P13051 94-313): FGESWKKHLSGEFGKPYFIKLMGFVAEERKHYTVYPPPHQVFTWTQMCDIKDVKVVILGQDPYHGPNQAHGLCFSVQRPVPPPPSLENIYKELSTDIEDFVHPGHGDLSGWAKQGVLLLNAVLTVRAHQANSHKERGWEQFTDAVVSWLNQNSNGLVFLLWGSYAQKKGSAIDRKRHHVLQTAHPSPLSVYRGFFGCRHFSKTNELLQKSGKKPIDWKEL

B1: 5'-FAM 10-mer nontarget duplex (dsDNA)
DNA 1: TCGATCGATG
DNA 2: CATCGATCGA
With B1, in series [1], the dissociation constant Kd came to 29 ± 0.4 µM.

B2: unlabeled 10-mer nontarget duplex (NMR) (dsDNA)
DNA 1: CTGGATCCAG
DNA 2: CTGGATCCAG
Turning to B2, the binding result in series [2] was “binds”.

What is called Kd is the free concentration of one partner at which half of the binding sites on the other are occupied at equilibrium, for simple one-to-one binding. Read a high Kd as weaker binding.

For the origin of these results see publication PMC2699497.
